# Data: IntAct's records for PubMed 31515488
# B1: Isoform 1 of Acetyl-CoA acetyltransferase, cytosolic (Homo sapiens), Q9BWD1-1 (parent)
# chain: MNAGSDPVVIVSAARTIIGSFNGALAAVPVQDLGSTVIKEVLKRATVAPEDVSEVIFGHVLAAGCGQNPVRQASVGAGIPYSVPAWSCQMICGSGLKAVCLAVQSIGIGDSSIVVAGGMENMSKAPHLAYLRTGVKIGEMPLTDSILCDGLTDAFHNCHMGITAENVAKKWQVSREDQDKVAVLSQNRTENAQKAGHFDKEIVPVLVSTRKGLIEVKTDEFPRHGSNIEAMSKLKPYFLTDGTGTVTPANASGINDGAAAVVLMKKSEADKRGLTPLARIVSWSQVGVEPSIMGIGPIPAIKQAVTKAGWSLEDVDIFEINEAFAAVSAAIVKELGLNPEKVNIEGGAIALGHPLGASGCRILVTLLHTLERMGRSRGVAALCIGGGMGIAMCVQRE
# B2: Conserved oligomeric Golgi complex subunit 7 (Homo sapiens), P83436 (parent)
# chain: MDFSKFLADDFDVKEWINAAFRAGSKEAASGKADGHAATLVMKLQLFIQEVNHAVEETSHQALQNMPKVLRDVEALKQEASFLKEQMILVKEDIKKFEQDTSQSMQVLVEIDQVKSRMQLAAESLQEADKWSTLSADIEETFKTQDIAVISAKLTGMQNSLMMLVDTPDYSEKCVHLEALKNRLEALASPQIVAAFTSQAVDQSKVFVKVFTEIDRMPQLLAYYYKCHKVQLLAAWQELCQSDLSLDRQLTGLYDALLGAWHTQIQWATQVFQKPHEVVMVLLIQTLGALMPSLPSCLSNGVERAGPEQELTRLLEFYDATAHFAKGLEMALLPHLHEHNLVKVTELVDAVYDPYKPYQLKYGDMEESNLLIQMSAVPLEHGEVIDCVQELSHSVNKLFGLASAAVDRCVRFTNGLGTCGLLSALKSLFAKYVSDFTSTLQSIRKKCKLDHIPPNSLFQEDWTAFQNSIRIIATCGELLRHCGDFEQQLANRILSTAGKYLSDSCSPRSLAGFQESILTDKKNSAKNPWQEYNYLQKDNPAEYASLMEILYTLKEKGSSNHNLLAAPRAALTRLNQQAHQLAFDSVFLRIKQQLLLISKMDSWNTAGIGETLTDELPAFSLTPLEYISNIGQYIMSLPLNLEPFVTQEDSALELALHAGKLPFPPEQGDELPELDNMADNWLGSIARATMQTYCDAILQIPELSPHSAKQLATDIDYLINVMDALGLQPSRTLQHIVTLLKTRPEDYRQVSKGLPRRLATTVATMRSVNY
# B3: CD2 antigen cytoplasmic tail-binding protein 2 (Homo sapiens), O95400 (parent)
# chain: MPKRKVTFQGVGDEEDEDEIIVPKKKLVDPVAGSGGPGSRFKGKHSLDSDEEEDDDDGGSSKYDILASEDVEGQEAATLPSEGGVRITPFNLQEEMEEGHFDADGNYFLNRDAQIRDSWLDNIDWVKIRERPPGQRQASDSEEEDSLGQTSMSAQALLEGLLELLLPRETVAGALRRLGARGGGKGRKGPGQPSSPQRLDRLSGLADQMVARGNLGVYQETRERLAMRLKGLGCQTLGPHNPTPPPSLDMFAEELAEEELETPTPTQRGEAESRGDGLVDVMWEYKWENTGDAELYGPFTSAQMQTWVSEGYFPDGVYCRKLDPPGGQFYNSKRIDFDLYT
# B4: Bcl-2-interacting killer (Homo sapiens), Q13323 (parent)
# chain: MSEVRPLSRDILMETLLYEQLLEPPTMEVLGMTDSEEDLDPMEDFDSLECMEGSDALALRLACIGDEMDVSLRAPRLAQLSEVAMHSLGLAFIYDQTEDIRDVLRSFMDGFTTLKENIMRFWRSPNPGSWVSCEQVLLALLLLLALLLPLLSGGLHLLLK
# partner: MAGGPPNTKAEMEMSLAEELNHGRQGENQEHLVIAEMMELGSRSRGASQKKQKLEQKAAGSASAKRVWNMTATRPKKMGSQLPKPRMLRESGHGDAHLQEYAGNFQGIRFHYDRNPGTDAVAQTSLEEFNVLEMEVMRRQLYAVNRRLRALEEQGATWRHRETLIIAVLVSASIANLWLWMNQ
# B5: Multifunctional procollagen lysine hydroxylase and glycosyltransferase LH3 (Homo sapiens), O60568 (parent)
# chain: MTSSGPGPRFLLLLPLLLPPAASASDRPRGRDPVNPEKLLVITVATAETEGYLRFLRSAEFFNYTVRTLGLGEEWRGGDVARTVGGGQKVRWLKKEMEKYADREDMIIMFVDSYDVILAGSPTELLKKFVQSGSRLLFSAESFCWPEWGLAEQYPEVGTGKRFLNSGGFIGFATTIHQIVRQWKYKDDDDDQLFYTRLYLDPGLREKLSLNLDHKSRIFQNLNGALDEVVLKFDRNRVRIRNVAYDTLPIVVHGNGPTKLQLNYLGNYVPNGWTPEGGCGFCNQDRRTLPGGQPPPRVFLAVFVEQPTPFLPRFLQRLLLLDYPPDRVTLFLHNNEVFHEPHIADSWPQLQDHFSAVKLVGPEEALSPGEARDMAMDLCRQDPECEFYFSLDADAVLTNLQTLRILIEENRKVIAPMLSRHGKLWSNFWGALSPDEYYARSEDYVELVQRKRVGVWNVPYISQAYVIRGDTLRMELPQRDVFSGSDTDPDMAFCKSFRDKGIFLHLSNQHEFGRLLATSRYDTEHLHPDLWQIFDNPVDWKEQYIHENYSRALEGEGIVEQPCPDVYWFPLLSEQMCDELVAEMEHYGQWSGGRHEDSRLAGGYENVPTVDIHMKQVGYEDQWLQLLRTYVGPMTESLFPGYHTKARAVMNFVVRYRPDEQPSLRPHHDSSTFTLNVALNHKGLDYEGGGCRFLRYDCVISSPRKGWALLHPGRLTHYHEGLPTTWGTRYIMVSFVDP
# partner: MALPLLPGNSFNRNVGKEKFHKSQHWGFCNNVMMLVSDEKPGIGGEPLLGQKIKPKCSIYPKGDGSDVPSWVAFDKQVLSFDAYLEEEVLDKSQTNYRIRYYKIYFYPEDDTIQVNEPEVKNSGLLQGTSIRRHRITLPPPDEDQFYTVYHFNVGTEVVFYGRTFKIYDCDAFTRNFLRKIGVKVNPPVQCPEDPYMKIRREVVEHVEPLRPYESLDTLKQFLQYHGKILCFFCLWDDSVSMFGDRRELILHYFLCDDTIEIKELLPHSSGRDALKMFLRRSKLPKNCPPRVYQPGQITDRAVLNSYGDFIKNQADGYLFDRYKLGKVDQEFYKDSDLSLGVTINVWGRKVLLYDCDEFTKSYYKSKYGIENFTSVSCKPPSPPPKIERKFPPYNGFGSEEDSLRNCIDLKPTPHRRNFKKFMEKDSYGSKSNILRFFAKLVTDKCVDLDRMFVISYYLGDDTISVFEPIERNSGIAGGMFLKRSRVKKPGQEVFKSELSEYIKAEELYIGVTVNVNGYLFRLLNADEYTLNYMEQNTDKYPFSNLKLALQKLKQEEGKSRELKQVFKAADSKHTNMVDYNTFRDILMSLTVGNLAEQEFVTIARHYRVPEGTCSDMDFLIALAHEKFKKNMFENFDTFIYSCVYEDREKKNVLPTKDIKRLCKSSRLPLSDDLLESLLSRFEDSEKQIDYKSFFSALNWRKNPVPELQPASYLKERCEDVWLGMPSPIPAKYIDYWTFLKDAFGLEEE
# B6: Nuclear receptor-interacting protein 1 (Homo sapiens), P48552 (parent)
# chain: MTHGEELGSDVHQDSIVLTYLEGLLMHQAAGGSGTAVDKKSAGHNEEDQNFNISGSAFPTCQSNGPVLNTHTYQGSGMLHLKKARLLQSSEDWNAAKRKRLSDSIMNLNVKKEALLAGMVDSVPKGKQDSTLLASLLQSFSSRLQTVALSQQIRQSLKEQGYALSHDSLKVEKDLRCYGVASSHLKTLLKKSKVKDQKPDTNLPDVTKNLIRDRFAESPHHVGQSGTKVMSEPLSCAARLQAVASMVEKRASPATSPKPSVACSQLALLLSSEAHLQQYSREHALKTQNANQAASERLAAMARLQENGQKDVGSYQLPKGMSSHLNGQARTSSSKLMASKSSATVFQNPMGIIPSSPKNAGYKNSLERNNIKQAANNSLLLHLLKSQTIPKPMNGHSHSERGSIFEESSTPTTIDEYSDNNPSFTDDSSGDESSYSNCVPIDLSCKHRTEKSESDQPVSLDNFTQSLLNTWDPKVPDVDIKEDQDTSKNSKLNSHQKVTLLQLLLGHKNEENVEKNTSPQGVHNDVSKFNTQNYARTSVIESPSTNRTTPVSTPPLLTSSKAGSPINLSQHSLVIKWNSPPYVCSTQSEKLTNTASNHSMDLTKSKDPPGEKPAQNEGAQNSATFSASKLLQNLAQCGMQSSMSVEEQRPSKQLLTGNTDKPIGMIDRLNSPLLSNKTNAVEENKAFSSQPTGPEPGLSGSEIENLLERRTVLQLLLGNPNKGKSEKKEKTPLRDESTQEHSERALSEQILMVKIKSEPCDDLQIPNTNVHLSHDAKSAPFLGMAPAVQRSAPALPVSEDFKSEPVSPQDFSFSKNGLLSRLLRQNQDSYLADDSDRSHRNNEMALLESKNLCMVPKKRKLYTEPLENPFKKMKNNIVDAANNHSAPEVLYGSLLNQEELKFSRNDLEFKYPAGHGSASESEHRSWARESKSFNVLKQLLLSENCVRDLSPHRSNSVADSKKKGHKNNVTNSKPEFSISSLNGLMYSSTQPSSCMDNRTFSYPGVVKTPVSPTFPEHLGCAGSRPESGLLNGCSMPSEKGPIKWVITDAEKNEYEKDSPRLTKTNPILYYMLQKGGNSVTSRETQDKDIWREASSAESVSQVTAKEELLPTAETKASFFNLRSPYNSHMGNNASRPHSANGEVYGLLGSVLTIKKESE
# partner: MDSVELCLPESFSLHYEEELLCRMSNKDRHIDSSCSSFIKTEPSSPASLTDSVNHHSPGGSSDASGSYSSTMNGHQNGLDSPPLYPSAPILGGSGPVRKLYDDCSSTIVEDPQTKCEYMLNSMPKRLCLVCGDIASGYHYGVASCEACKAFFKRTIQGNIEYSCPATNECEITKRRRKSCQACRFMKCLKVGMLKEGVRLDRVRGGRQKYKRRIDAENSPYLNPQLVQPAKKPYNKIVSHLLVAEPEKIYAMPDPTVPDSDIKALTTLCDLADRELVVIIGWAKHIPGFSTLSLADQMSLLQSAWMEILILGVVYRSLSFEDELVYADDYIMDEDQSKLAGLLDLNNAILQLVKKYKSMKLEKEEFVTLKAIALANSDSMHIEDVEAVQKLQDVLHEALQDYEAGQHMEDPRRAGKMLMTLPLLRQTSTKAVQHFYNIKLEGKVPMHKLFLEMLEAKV
# Variants of: B1
# Settings: with lnx1_human LNX1, Q8TBB1
# lnx1_human LNX1, Q8TBB1, sequence (Q8TBB1 whole entry): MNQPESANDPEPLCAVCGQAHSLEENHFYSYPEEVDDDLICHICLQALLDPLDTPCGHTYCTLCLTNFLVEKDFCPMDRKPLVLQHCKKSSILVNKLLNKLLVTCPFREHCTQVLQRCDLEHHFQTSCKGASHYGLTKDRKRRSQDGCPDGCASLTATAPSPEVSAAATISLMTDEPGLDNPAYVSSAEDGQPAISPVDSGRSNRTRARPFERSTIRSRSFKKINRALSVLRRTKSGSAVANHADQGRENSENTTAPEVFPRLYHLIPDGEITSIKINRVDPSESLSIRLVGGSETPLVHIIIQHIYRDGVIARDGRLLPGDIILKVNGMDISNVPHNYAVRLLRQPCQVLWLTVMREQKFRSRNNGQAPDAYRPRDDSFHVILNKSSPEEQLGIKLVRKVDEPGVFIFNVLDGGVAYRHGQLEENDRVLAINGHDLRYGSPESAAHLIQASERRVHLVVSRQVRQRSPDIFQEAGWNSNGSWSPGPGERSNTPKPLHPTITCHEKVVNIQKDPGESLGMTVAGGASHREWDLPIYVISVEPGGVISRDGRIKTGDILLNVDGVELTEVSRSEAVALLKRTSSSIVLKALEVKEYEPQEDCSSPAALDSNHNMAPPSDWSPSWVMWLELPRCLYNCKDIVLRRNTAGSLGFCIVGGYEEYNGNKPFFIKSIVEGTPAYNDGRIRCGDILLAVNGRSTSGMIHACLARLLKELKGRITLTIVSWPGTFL
row,Variant,effect of a mutation on the interaction
1,G161S,with no effect

# Variants of: B2
# Settings: with taxb1_human TAX1BP1, Q86VP1
# taxb1_human TAX1BP1, Q86VP1, sequence (Q86VP1 whole entry): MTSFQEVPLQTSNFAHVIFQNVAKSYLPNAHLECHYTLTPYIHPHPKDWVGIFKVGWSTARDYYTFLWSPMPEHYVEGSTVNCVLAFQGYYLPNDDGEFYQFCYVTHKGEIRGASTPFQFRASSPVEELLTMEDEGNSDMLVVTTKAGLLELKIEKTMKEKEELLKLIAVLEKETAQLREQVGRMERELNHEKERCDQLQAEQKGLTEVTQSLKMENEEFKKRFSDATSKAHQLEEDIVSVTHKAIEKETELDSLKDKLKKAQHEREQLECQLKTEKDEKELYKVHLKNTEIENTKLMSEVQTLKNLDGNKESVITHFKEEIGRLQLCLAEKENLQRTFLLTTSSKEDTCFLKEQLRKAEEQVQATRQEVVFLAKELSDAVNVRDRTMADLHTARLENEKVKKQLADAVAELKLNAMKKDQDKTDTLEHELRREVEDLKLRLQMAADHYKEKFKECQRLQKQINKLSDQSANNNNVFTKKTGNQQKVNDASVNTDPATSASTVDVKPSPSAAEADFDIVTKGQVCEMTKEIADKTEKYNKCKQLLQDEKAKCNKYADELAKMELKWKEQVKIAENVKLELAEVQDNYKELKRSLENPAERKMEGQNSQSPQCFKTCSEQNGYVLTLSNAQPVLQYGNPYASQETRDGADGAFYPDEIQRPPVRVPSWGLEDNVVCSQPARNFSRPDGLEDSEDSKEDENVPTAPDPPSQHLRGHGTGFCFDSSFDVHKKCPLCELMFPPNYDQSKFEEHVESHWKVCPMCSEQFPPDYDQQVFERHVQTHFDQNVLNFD
row,Variant,effect of a mutation on the interaction
1,Q749K,with no effect

# Variants of: B3
# Settings: with rsmb_human SNRPB
row,Variant,effect of a mutation on the interaction
1,T262I,with no effect

# Variants of: B4
# Settings: with fate1_human FATE1, Q969F0
row,Variant,effect of a mutation on the interaction
1,D69E,with no effect

# Variants of: B5
# Settings: with efhc2_human EFHC2, Q5JST6
row,Variant,effect of a mutation on the interaction
1,A492V,disrupting interaction strength

# Variants of: B6
# Settings: with err3_human ESRRG
row,Variant,effect of a mutation on the interaction
1,K385I,with no effect
